# Experimental data: the supplement of paper PMC9112550, “Optimization of the antimicrobial peptide Bac7 by deep mutational scanning” (BMC Biology, 2022)
# Test system: Escherichia coli TOP10
# Experiment: shrunken log2 fold change of peptide-encoding DNA abundance (4.5 h post-induction vs induction); higher = less antimicrobial activity (less host growth inhibition)
# Conditions: time post-induction: 4.5 h; library: site-saturation at positions 5, 18, 19, 20
# 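Note: peptides expressed intracellularly from a pBAD plasmid library in pooled LB shake-flask culture, induced with 0.3% L-arabinose, DNA abundance read by NGS, three biological replicates, DESeq2 with apeglm shrinkage.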
row,Sequence,shrunken log2 fold change
1,RRIRNRPPRLPRPRPRPYCTPRP,-0.169
2,RRIRWRPPRLPRPRPRPHRNPRP,-0.255
3,RRIRGRPPRLPRPRPRPNDAPRP,0.0548
4,RRIRKRPPRLPRPRPRPIGPPRP,0.0335
5,RRIRKRPPRLPRPRPRPFLTPRP,-0.206
6,RRIRYRPPRLPRPRPRPFETPRP,0.111
7,RRIRERPPRLPRPRPRPTILPRP,-0.0814
8,RRIRARPPRLPRPRPRPFVAPRP,0.254
9,RRIRGRPPRLPRPRPRPKLLPRP,0.84
10,RRIRFRPPRLPRPRPRPLFRPRP,-0.372
11,RRIRNRPPRLPRPRPRPPSVPRP,0.0886
12,RRIRKRPPRLPRPRPRPFGHPRP,-0.00208
13,RRIRNRPPRLPRPRPRPRKDPRP,0.00266
14,RRIRERPPRLPRPRPRPEEHPRP,-0.0183
15,RRIRDRPPRLPRPRPRPIHQPRP,-0.241
16,RRIRLRPPRLPRPRPRPVARPRP,0.551
17,RRIRDRPPRLPRPRPRPFLFPRP,0.212
18,RRIRVRPPRLPRPRPRPWQYPRP,-0.0599
19,RRIRFRPPRLPRPRPRPPQRPRP,0.617
20,RRIRFRPPRLPRPRPRPVCGPRP,0.277
21,RRIRVRPPRLPRPRPRPTDIPRP,-0.402
22,RRIRLRPPRLPRPRPRPYIIPRP,-0.217
23,RRIRARPPRLPRPRPRPGGWPRP,1.26
24,RRIRFRPPRLPRPRPRPHSNPRP,-0.84
25,RRIRIRPPRLPRPRPRPDGFPRP,-0.00369

row,Sequence,shrunken log2 fold change
1,RRIRERPPRLPRPRPRPVAMPRP,-0.00351
2,RRIRVRPPRLPRPRPRPTCLPRP,0.332
3,RRIRFRPPRLPRPRPRPKNEPRP,-0.137
4,RRIRYRPPRLPRPRPRPAHVPRP,-0.144
5,RRIRWRPPRLPRPRPRPCEMPRP,0.0732
6,RRIRWRPPRLPRPRPRPVRVPRP,0.214
7,RRIRIRPPRLPRPRPRPPSSPRP,-0.0293
8,RRIRDRPPRLPRPRPRPPCIPRP,-0.264
9,RRIRHRPPRLPRPRPRPDYIPRP,-0.0135
10,RRIRHRPPRLPRPRPRPADGPRP,-0.279
11,RRIRERPPRLPRPRPRPYRQPRP,-0.264
12,RRIRCRPPRLPRPRPRPYNHPRP,-0.416
13,RRIRQRPPRLPRPRPRPQSIPRP,-0.0322
14,RRIRGRPPRLPRPRPRPHMAPRP,0.271
15,RRIRQRPPRLPRPRPRPQLLPRP,-0.00691
16,RRIRWRPPRLPRPRPRPVGVPRP,0.297
17,RRIRWRPPRLPRPRPRPVGRPRP,0.0962
18,RRIRARPPRLPRPRPRPSWHPRP,0.0482
19,RRIRHRPPRLPRPRPRPCHRPRP,-0.126
20,RRIRNRPPRLPRPRPRPPLGPRP,0.331
21,RRIRQRPPRLPRPRPRPKVDPRP,0.129
22,RRIRFRPPRLPRPRPRPFNNPRP,-0.262
23,RRIRARPPRLPRPRPRPRFVPRP,0.457
24,RRIRQRPPRLPRPRPRPQKAPRP,-0.109
25,RRIRSRPPRLPRPRPRPVLWPRP,0.657

row,Sequence,shrunken log2 fold change
1,RRIRKRPPRLPRPRPRPWHHPRP,-0.197
2,RRIRWRPPRLPRPRPRPHMRPRP,0.494
3,RRIRIRPPRLPRPRPRPAASPRP,0.241
4,RRIRERPPRLPRPRPRPNIVPRP,-0.232
5,RRIRMRPPRLPRPRPRPQACPRP,-0.12
6,RRIRFRPPRLPRPRPRPISMPRP,-0.137
7,RRIRCRPPRLPRPRPRPKINPRP,-0.645
8,RRIRQRPPRLPRPRPRPSVKPRP,-0.0362
9,RRIRERPPRLPRPRPRPVFPPRP,0.242
10,RRIRARPPRLPRPRPRPDEIPRP,0.357
11,RRIRCRPPRLPRPRPRPEMNPRP,-0.036
12,RRIRHRPPRLPRPRPRPWIMPRP,-0.597
13,RRIRFRPPRLPRPRPRPDWAPRP,0.0526
14,RRIRQRPPRLPRPRPRPVRIPRP,-0.0391
15,RRIRRRPPRLPRPRPRPNYMPRP,-0.605
16,RRIRERPPRLPRPRPRPAEFPRP,0.00307
17,RRIRYRPPRLPRPRPRPGHRPRP,0.0683
18,RRIRGRPPRLPRPRPRPEWWPRP,0.77
19,RRIRSRPPRLPRPRPRPMMQPRP,-0.241
20,RRIRIRPPRLPRPRPRPSQNPRP,-0.766
21,RRIRHRPPRLPRPRPRPEMQPRP,-0.000952
22,RRIRVRPPRLPRPRPRPRVCPRP,0.165
23,RRIRIRPPRLPRPRPRPNTYPRP,-1.02
24,RRIRYRPPRLPRPRPRPTKKPRP,0.113
25,RRIRRRPPRLPRPRPRPGIHPRP,0.252

row,Sequence,shrunken log2 fold change
1,RRIRPRPPRLPRPRPRPEPGPRP,0.27
2,RRIRCRPPRLPRPRPRPTIVPRP,-0.0931
3,RRIRNRPPRLPRPRPRPWYPPRP,-0.215
4,RRIRQRPPRLPRPRPRPDEGPRP,-0.106
5,RRIRTRPPRLPRPRPRPRAQPRP,0.461
6,RRIRTRPPRLPRPRPRPENMPRP,-0.468
7,RRIRWRPPRLPRPRPRPPKFPRP,0.419
8,RRIRTRPPRLPRPRPRPAFFPRP,0.0542
9,RRIRYRPPRLPRPRPRPDGCPRP,-0.029
10,RRIRTRPPRLPRPRPRPTFFPRP,-0.11
11,RRIRWRPPRLPRPRPRPGSKPRP,0.0611
12,RRIRTRPPRLPRPRPRPAFLPRP,0.228
13,RRIRNRPPRLPRPRPRPYFDPRP,-0.0504
14,RRIRCRPPRLPRPRPRPWRSPRP,-0.0803
15,RRIRPRPPRLPRPRPRPGFCPRP,0.295
16,RRIRDRPPRLPRPRPRPKYIPRP,-0.516
17,RRIRYRPPRLPRPRPRPVNMPRP,-0.47
18,RRIRDRPPRLPRPRPRPCCMPRP,0.125
19,RRIRARPPRLPRPRPRPASYPRP,0.187
20,RRIRARPPRLPRPRPRPDHYPRP,-0.287
21,RRIRHRPPRLPRPRPRPEKVPRP,-0.017
22,RRIRCRPPRLPRPRPRPGKFPRP,-0.188
23,RRIRIRPPRLPRPRPRPVQRPRP,-0.039
24,RRIRDRPPRLPRPRPRPCMIPRP,0.28
25,RRIRVRPPRLPRPRPRPSPEPRP,-0.142

row,Sequence,shrunken log2 fold change
1,RRIRYRPPRLPRPRPRPSKIPRP,-0.502
2,RRIRVRPPRLPRPRPRPGKGPRP,0.0187
3,RRIRYRPPRLPRPRPRPIHIPRP,-0.0433
4,RRIRERPPRLPRPRPRPEIDPRP,-0.00826
5,RRIRLRPPRLPRPRPRPDRTPRP,0.0027
6,RRIRPRPPRLPRPRPRPAGHPRP,0.0291
7,RRIRWRPPRLPRPRPRPTGTPRP,0.288
8,RRIRERPPRLPRPRPRPKPKPRP,0.0931
9,RRIRERPPRLPRPRPRPEIIPRP,0.0655
10,RRIRERPPRLPRPRPRPAYKPRP,-0.21
11,RRIRTRPPRLPRPRPRPIGVPRP,-0.0262
12,RRIRMRPPRLPRPRPRPPVWPRP,0.825
13,RRIRNRPPRLPRPRPRPTEIPRP,-0.319
14,RRIRRRPPRLPRPRPRPYFQPRP,-0.189
15,RRIRRRPPRLPRPRPRPVQDPRP,0.252
16,RRIRERPPRLPRPRPRPRIFPRP,-0.0907
17,RRIRMRPPRLPRPRPRPNAFPRP,0.344
18,RRIRNRPPRLPRPRPRPTQRPRP,0.582
19,RRIRFRPPRLPRPRPRPIDSPRP,-0.401
20,RRIRNRPPRLPRPRPRPDLNPRP,0.274
21,RRIRTRPPRLPRPRPRPPKVPRP,0.286
22,RRIRLRPPRLPRPRPRPDFYPRP,-0.324
23,RRIRWRPPRLPRPRPRPMNEPRP,0.0689
24,RRIRARPPRLPRPRPRPKGCPRP,1.4
25,RRIRTRPPRLPRPRPRPSCPPRP,-0.444

row,Sequence,shrunken log2 fold change
1,RRIRERPPRLPRPRPRPESSPRP,-0.192
2,RRIRHRPPRLPRPRPRPLEEPRP,0.136
3,RRIRRRPPRLPRPRPRPCHEPRP,-0.0891
4,RRIRYRPPRLPRPRPRPPDYPRP,-2.1
5,RRIRRRPPRLPRPRPRPAYVPRP,0.0253
6,RRIRNRPPRLPRPRPRPVPQPRP,0.24
7,RRIRCRPPRLPRPRPRPFRTPRP,-0.421
8,RRIRTRPPRLPRPRPRPFCTPRP,-0.316
9,RRIRFRPPRLPRPRPRPLMFPRP,-0.695
10,RRIRHRPPRLPRPRPRPCTNPRP,-0.249
11,RRIRKRPPRLPRPRPRPRIRPRP,0.344
12,RRIRNRPPRLPRPRPRPKHRPRP,0.0319
13,RRIRDRPPRLPRPRPRPFGIPRP,0.0183
14,RRIRIRPPRLPRPRPRPCPTPRP,-0.0511
15,RRIRCRPPRLPRPRPRPRHKPRP,-0.265
16,RRIRDRPPRLPRPRPRPLDSPRP,0.148
17,RRIRGRPPRLPRPRPRPVTSPRP,0.203
18,RRIRDRPPRLPRPRPRPYDDPRP,-0.00157
19,RRIRWRPPRLPRPRPRPFCYPRP,-0.418
20,RRIRFRPPRLPRPRPRPGMTPRP,-0.142
21,RRIRERPPRLPRPRPRPPNTPRP,-0.284
22,RRIRARPPRLPRPRPRPMPYPRP,-0.105
23,RRIRVRPPRLPRPRPRPYPTPRP,-0.398
24,RRIRARPPRLPRPRPRPLMCPRP,0.0392
25,RRIRSRPPRLPRPRPRPAVQPRP,-0.0326
